Reference: the emibetuzumab library of Makowski et al. (2022)

B1: VH:VL chains; a variant is named by its letters at X, in order (parent)
chain 1: QVQLVQSGAEVKKPGASVKVSCKASGYTFTDYXMHWVRQAPGQGLEWMGXVNPNXXXTTYNQKFEGRVTMTTDTSTSTAYMELRSLRSDDTAVYYCARXNXLDXWGQGTTVTVSS
chain 2: DIQMTQSPSSLSASVGDRVTITCSVSSSVSSIYLHWYQQKPGKAPKLLIYSTSNLASGVPSRFSGSGSGTDFTLTISSLQPEDFATYYCQVYSGYPLTFGGGTKVEIK

Variants of: B1
Assay: yeast display scFab, FACS + sequencing
In short: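 Non-specific binding was called from deep sequencing of sorted yeast cells displaying a heavy-chain CDR mutant scFab library. Cells labelled with anti-Myc and biotinylated ovalbumin (260 μg/mL in PBSB, 3 h, room temperature) or soluble membrane proteins (130 μg/mL, 20 min on ice) were FACS-sorted, collecting the top 25% and bottom 10% of binders from two replicates. A sequence was positive when present in ≥3 of 4 pooled positive samples and absent from all negatives, and negative under the converse rule.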
For FRRGSSAA, the non-specific binding call was “binds”. For YRRGGSGY, the non-specific binding call was “binds”. In the case of YRRGGSGA, the non-specific binding call is reported as “binds”. In the case of YRRGGSGS, the non-specific binding call is reported as “binds”. With YRRGGSGD the non-specific binding call was “binds”. With YRRGSAWA the non-specific binding call was “binds”. In the case of YRREGAGD, the non-specific binding call is reported as “binds”. With YRREGSAV the non-specific binding call was “binds”. In the case of YRRGGSVA, the non-specific binding call is reported as “binds”. For YRRGGSVF, the non-specific binding call was “binds”. For YRRGGSVS, the non-specific binding call was “binds”. In the case of YRRGGSVD, the non-specific binding call is reported as “binds”. With ARRGGSVD the non-specific binding call was “binds”. With VRKGSSGD the non-specific binding call was “binds”. For YRRGGYAV, the non-specific binding call was “binds”. With YRRGSFGA the non-specific binding call was “binds”. For VRRGSDGV, the non-specific binding call was “no binding”. In the case of YRRGAAWA, the non-specific binding call is reported as “binds”. In the case of YRRGAAGD, the non-specific binding call is reported as “binds”. For YRRGASSS, the non-specific binding call was “binds”. With YRKRGVGV the non-specific binding call was “binds”. With FRRGSSVV the non-specific binding call was “binds”. In the case of YRRGDASD, the non-specific binding call is reported as “binds”. With YRRGGFVV the non-specific binding call was “binds”. In the case of YRRGSSVF, the non-specific binding call is reported as “binds”. For YRRGSSVS, the non-specific binding call was “binds”. With YRRGSSVV the non-specific binding call was “binds”. With VRRGSAGD the non-specific binding call was “binds”. In the case of VRRGSAGS, the non-specific binding call is reported as “binds”. With YRKRGSLY the non-specific binding call was “binds”. For YRKRGSLV, the non-specific binding call was “binds”. For YRRGSSAV, the non-specific binding call was “binds”. With YRRGSSAA the non-specific binding call was “binds”. For VRKGGSVY, the non-specific binding call was “binds”. With YRRGDAAF the non-specific binding call was “binds”. With VRRANFLD the non-specific binding call was “binds”. For YRKGSAAA, the non-specific binding call was “binds”. For FRRGSAVA, the non-specific binding call was “binds”. In the case of YRRGGAGY, the non-specific binding call is reported as “binds”. In the case of YRRGGAGF, the non-specific binding call is reported as “binds”. For YRRGGAGV, the non-specific binding call was “binds”. For VRKKGVSS, the non-specific binding call was “binds”. For YRKKGDLA, the non-specific binding call was “binds”. With YRRGGVGA the non-specific binding call was “binds”. In the case of YRRGGVGV, the non-specific binding call is reported as “binds”. For VRKGGVAV, the non-specific binding call was “binds”. With FRRGDAVA the non-specific binding call was “binds”. For VRRGSSLF, the non-specific binding call was “binds”. For FRRGGSLD, the non-specific binding call was “binds”. For YRRGGAVA, the non-specific binding call was “binds”. With YRRGGAVS the non-specific binding call was “binds”. For VRKGGSGV, the non-specific binding call was “binds”. In the case of YRKGSSVD, the non-specific binding call is reported as “binds”. In the case of YRKGSSVS, the non-specific binding call is reported as “binds”. In the case of YRKGGSVS, the non-specific binding call is reported as “binds”. In the case of VRRGDSSD, the non-specific binding call is reported as “no binding”. For YRRGDAWD, the non-specific binding call was “binds”. With YRRGDAWY the non-specific binding call was “binds”. In the case of YRKGSALD, the non-specific binding call is reported as “binds”. With DRRGDSLV the non-specific binding call was “no binding”. In the case of FRRGGAGD, the non-specific binding call is reported as “binds”. For FRRGGAGY, the non-specific binding call was “binds”. With FRREGSSD the non-specific binding call was “binds”. With FRRGGAAA the non-specific binding call was “binds”. With FRRGGAAS the non-specific binding call was “binds”. In the case of YRRAADSD, the non-specific binding call is reported as “binds”. In the case of SRRGGYVS, the non-specific binding call is reported as “binds”. For YRRGASWD, the non-specific binding call was “binds”. For YRKGGSWS, the non-specific binding call was “binds”. In the case of YRKRGAAD, the non-specific binding call is reported as “binds”. With YRKRGAAA the non-specific binding call was “binds”. In the case of YRRGGSLS, the non-specific binding call is reported as “binds”. In the case of YRKKSVGA, the non-specific binding call is reported as “binds”. In the case of YRRGGASA, the non-specific binding call is reported as “binds”. For YRRGGASD, the non-specific binding call was “binds”. In the case of SRRGSASS, the non-specific binding call is reported as “binds”. With DRRGDASD the non-specific binding call was “no binding”. For VRRGDVGV, the non-specific binding call was “binds”. For FRRGGSGS, the non-specific binding call was “binds”. With FRRGGSGV the non-specific binding call was “binds”. In the case of DRRGDDGV, the non-specific binding call is reported as “no binding”. With DRRGDDGA the non-specific binding call was “no binding”. In the case of YRKGSSWD, the non-specific binding call is reported as “binds”. In the case of VRRGDDVY, the non-specific binding call is reported as “no binding”. With YRRGGAWS the non-specific binding call was “binds”. In the case of YRRGGAWY, the non-specific binding call is reported as “binds”. For YRRGGAWD, the non-specific binding call was “binds”. In the case of YRRGGAWV, the non-specific binding call is reported as “binds”. With YRRGGAWA the non-specific binding call was “binds”. With ARKTGAGA the non-specific binding call was “binds”. For YRKGGAWY, the non-specific binding call was “binds”. With YRRGDSWD the non-specific binding call was “binds”. With YRRGGALA the non-specific binding call was “binds”. For YRRGGALD, the non-specific binding call was “binds”. With YRRGGALV the non-specific binding call was “binds”. With YRRGSALS the non-specific binding call was “binds”. With YRRGSALY the non-specific binding call was “binds”. With YRKGGFSS the non-specific binding call was “binds”. In the case of ARRGAYGV, the non-specific binding call is reported as “binds”. In the case of VRKRGALD, the non-specific binding call is reported as “binds”. In the case of ARRGGSGF, the non-specific binding call is reported as “binds”. With ARRGGSGS the non-specific binding call was “binds”. For YRKRGSGV, the non-specific binding call was “binds”. In the case of VRRGGAAA, the non-specific binding call is reported as “binds”. With VRRGGAAS the non-specific binding call was “binds”. For YRRGGYVD, the non-specific binding call was “binds”. In the case of FRKRGSAV, the non-specific binding call is reported as “binds”. With YRKRGAGA the non-specific binding call was “binds”. For YRKRGAGD, the non-specific binding call was “binds”. In the case of YRRGDSGV, the non-specific binding call is reported as “binds”. With ARRGSDLA the non-specific binding call was “no binding”. For YRKGGSAA, the non-specific binding call was “binds”. For FRRGGAVV, the non-specific binding call was “binds”. In the case of FRRGGAVD, the non-specific binding call is reported as “binds”. With VRRGGSGS the non-specific binding call was “binds”. In the case of VRRGGSGD, the non-specific binding call is reported as “binds”. In the case of VRRGGSAA, the non-specific binding call is reported as “binds”. With YRRGDFWA the non-specific binding call was “no binding”. With VRRAADSD the non-specific binding call was “binds”. For FRRGSALA, the non-specific binding call was “binds”. For FRRGGSVD, the non-specific binding call was “binds”. With YRKRGDVV the non-specific binding call was “binds”. With ARRGSSLD the non-specific binding call was “no binding”. For DRRGSDAV, the non-specific binding call was “no binding”. In the case of YRRGDSLY, the non-specific binding call is reported as “binds”. In the case of ARRGSAVS, the non-specific binding call is reported as “binds”. In the case of VRRGGAWV, the non-specific binding call is reported as “binds”. In the case of YRRGSVGA, the non-specific binding call is reported as “binds”. In the case of FRKRGSVF, the non-specific binding call is reported as “binds”.
